Data published in paper PMC6882888, “Two-tiered enforcement of high-fidelity DNA ligation”.

Tests used:
LIG1 E346A/E592A (EE/AA) [1] = target: T1, LIG1 E346A/E592A (EE/AA) (Homo sapiens, UniProt P18858 262-904, E346A;E592A); assay: X-ray crystallography (1.85 A); 2 mM EDTA in cryoprotectant, 1 mM ATP; 5'-adenylylated; Crystals: complex in 150 mM NaCl, 20 mM Tris-Cl pH 7.5, 1 mM TCEP, 1 mM ATP mixed 1:1 with 100 mM MES pH 6, 100 mM lithium acetate, 15% PEG3350; ligation/trapping: 50 mM NaMOPS pH 7.5, 1 mM DTT, 0.05 mg/mL BSA, ionic strength 150 mM (NaCl), 37 C; conditions: protein: recombinant; tags: His-tag removed by TEV; nicked duplex, 11mer + 7mer on 18mer template, blunt ends, 8oxoG:A Hoogsteen pair at nick
LIG1 E346A/E592A (EE/AA) [2] = target: T1, LIG1 E346A/E592A (EE/AA); assay: X-ray crystallography (1.75 A); 2 mM EDTA in cryoprotectant, 1 mM ATP; 5'-adenylylated; Crystals: complex in 150 mM NaCl, 20 mM Tris-Cl pH 7.5, 1 mM TCEP, 1 mM ATP mixed 1:1 with 100 mM MES pH 6, 100 mM lithium acetate, 15% PEG3350; ligation/trapping: 50 mM NaMOPS pH 7.5, 1 mM DTT, 0.05 mg/mL BSA, ionic strength 150 mM (NaCl), 37 C; conditions: protein: recombinant; tags: His-tag removed by TEV; nicked duplex, 11mer + 7mer on 18mer template, blunt ends
LIG1 E592R = LIG1 E592R (Homo sapiens, UniProt P18858 262-904, E592R); assay: X-ray crystallography (1.85 A); 2 mM EDTA in cryoprotectant, 1 mM ATP; Crystals: complex in 150 mM NaCl, 20 mM Tris-Cl pH 7.5, 1 mM TCEP, 1 mM ATP mixed 1:1 with 100 mM MES pH 6, 100 mM lithium acetate, 15% PEG3350; ligation/trapping: 50 mM NaMOPS pH 7.5, 1 mM DTT, 0.05 mg/mL BSA, ionic strength 150 mM (NaCl), 37 C; conditions: protein: recombinant; tags: His-tag removed by TEV; nicked duplex, 11mer + 7mer on 18mer template, blunt ends
LIG1 WT [3] = target: T2, LIG1 WT (Homo sapiens, UniProt P18858 262-904); assay: X-ray crystallography (1.55 A); 2 mM EDTA in cryoprotectant, 1 mM ATP; Crystals: complex in 150 mM NaCl, 20 mM Tris-Cl pH 7.5, 1 mM TCEP, 1 mM ATP mixed 1:1 with 100 mM MES pH 6, 100 mM lithium acetate, 15% PEG3350; ligation/trapping: 50 mM NaMOPS pH 7.5, 1 mM DTT, 0.05 mg/mL BSA, ionic strength 150 mM (NaCl), 37 C; conditions: protein: recombinant; tags: His-tag removed by TEV; nicked duplex, 11mer + 7mer on 18mer template, blunt ends
LIG1 E346A/E592A (EE/AA) [4] = target: T1, LIG1 E346A/E592A (EE/AA); assay: X-ray crystallography (2.20 A); 200 mM Mg2+ in cryoprotectant, 1 mM ATP; Crystals: complex in 150 mM NaCl, 20 mM Tris-Cl pH 7.5, 1 mM TCEP, 1 mM ATP mixed 1:1 with 100 mM MES pH 6, 100 mM lithium acetate, 15% PEG3350; ligation/trapping: 50 mM NaMOPS pH 7.5, 1 mM DTT, 0.05 mg/mL BSA, ionic strength 150 mM (NaCl), 37 C; conditions: protein: recombinant; tags: His-tag removed by TEV; nicked duplex, 11mer + 7mer on 18mer template, blunt ends
LIG1 WT [5] = target: T2, LIG1 WT; assay: X-ray crystallography (2.05 A); 200 mM Mg2+ in cryoprotectant, 1 mM ATP; AMP-DNA intermediate; 4 Mg2+ sites; Crystals: complex in 150 mM NaCl, 20 mM Tris-Cl pH 7.5, 1 mM TCEP, 1 mM ATP mixed 1:1 with 100 mM MES pH 6, 100 mM lithium acetate, 15% PEG3350; ligation/trapping: 50 mM NaMOPS pH 7.5, 1 mM DTT, 0.05 mg/mL BSA, ionic strength 150 mM (NaCl), 37 C; conditions: protein: recombinant; tags: His-tag removed by TEV; nicked duplex, 11mer + 7mer on 18mer template, blunt ends

T1 sequence (P18858 262-904 E346A/E592A): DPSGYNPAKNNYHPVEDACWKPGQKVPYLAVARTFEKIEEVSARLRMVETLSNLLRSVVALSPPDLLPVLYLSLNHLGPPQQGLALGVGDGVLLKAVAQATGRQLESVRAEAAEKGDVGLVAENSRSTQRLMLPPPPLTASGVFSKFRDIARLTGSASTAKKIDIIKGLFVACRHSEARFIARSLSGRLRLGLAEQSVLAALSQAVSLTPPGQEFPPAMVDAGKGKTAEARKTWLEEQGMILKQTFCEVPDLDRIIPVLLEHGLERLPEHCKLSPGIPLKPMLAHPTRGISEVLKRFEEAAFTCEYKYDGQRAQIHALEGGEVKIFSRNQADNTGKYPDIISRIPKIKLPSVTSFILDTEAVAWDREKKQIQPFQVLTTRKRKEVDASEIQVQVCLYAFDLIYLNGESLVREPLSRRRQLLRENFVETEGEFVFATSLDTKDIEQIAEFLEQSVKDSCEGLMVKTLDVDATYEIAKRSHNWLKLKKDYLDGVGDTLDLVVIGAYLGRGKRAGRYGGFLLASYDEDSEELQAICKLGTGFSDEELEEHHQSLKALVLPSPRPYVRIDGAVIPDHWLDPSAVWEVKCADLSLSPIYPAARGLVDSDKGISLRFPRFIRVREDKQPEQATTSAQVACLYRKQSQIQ
T2 sequence (P18858 262-904): as the sequence (P18858 262-904 E346A/E592A) above, with A85E, A331E counted along it
LIG1 E592R, sequence (P18858 262-904 E592R): as the sequence (P18858 262-904 E346A/E592A) above, with A85E, A331R counted along it

B1: nicked 18mer 3'-8oxoG:A (oligos 3,5,6) (dsDNA)
DNA 1: GTCCGACAACGCATCAGC
DNA 2: GCTGATGCGTG
DNA 3: GTCGGAC
modifications: 3'-terminal G of 11mer is 8oxoG (opposite A); 5' phosphate on 7mer, 5'-adenylylated in the crystal
B1: binds (LIG1 E346A/E592A (EE/AA) [1]).

B2: nicked 18mer 3'OH (oligos 1,3,4) (dsDNA)
DNA 1: GTCCGACGACGCATCAGC
DNA 2: GCTGATGCGTC
DNA 3: GTCGGAC
modifications: 5' phosphate on 7mer, 5'-adenylylated in the crystal
B2: binds (LIG1 E346A/E592A (EE/AA) [2]); binds (LIG1 E592R); binds (LIG1 WT [3]).

B3: nicked 18mer 3'ddC (oligos 1,2,3) (dsDNA)
DNA 1: GTCCGACGACGCATCAGC
DNA 2: GCTGATGCGTC
DNA 3: GTCGGAC
modifications: 3'-terminal C of 11mer is ddC; 5' phosphate on 7mer, 5'-adenylylated in the complex
B3: binds (LIG1 E346A/E592A (EE/AA) [4]); binds (LIG1 WT [5]).
